Measured values reported in patent publication US20050215467A1 (published 2005).

T1: LCAT (purified from human plasma) (human, UniProt P04180 25-440)
T1 sequence (looked up): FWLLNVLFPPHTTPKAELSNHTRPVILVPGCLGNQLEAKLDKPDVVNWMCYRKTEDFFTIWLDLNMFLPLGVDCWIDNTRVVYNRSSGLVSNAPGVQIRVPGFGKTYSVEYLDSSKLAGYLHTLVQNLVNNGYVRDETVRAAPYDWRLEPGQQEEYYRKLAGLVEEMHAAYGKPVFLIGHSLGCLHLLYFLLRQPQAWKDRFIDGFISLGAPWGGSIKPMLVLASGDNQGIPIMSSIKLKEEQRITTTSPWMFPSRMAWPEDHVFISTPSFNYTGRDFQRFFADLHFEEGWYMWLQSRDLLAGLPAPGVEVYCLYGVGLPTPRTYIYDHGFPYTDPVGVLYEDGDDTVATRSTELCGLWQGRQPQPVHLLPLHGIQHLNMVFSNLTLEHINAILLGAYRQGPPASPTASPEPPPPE

B1: peptide 15 (peptide)
peptide: PVLDLFRELWNELLEALKQKLK
notes: peptide 4 containing a Trp residue at position 10

Tests used:
[1] = molecular target: the molecule itself; test: tryptophan fluorescence emission maximum (332 nm), peptide free in buffer; self-association
[2] = molecular target: T1, LCAT (purified from human plasma); test: cell-based or functional assay

Binder	binding result [1]	ACTIVITY (%) LCAT [2]
B1	binds	
PVLDLFRELGNELLEALKQKLK [peptide 9]		63%
